The target in this experiment is nucleosome containing the H3(1-132)-QFI chimera (Drosophila | budding yeast), P02299. The experiment in a line: ITC. (In general: ITC needs no label: the signal is the heat of the interaction.)

Among the data in PMC3763809 are Kd values, retold here.

B1: budding yeast CENP-C motif (domain or fragment)
chain: GLRKSTRVKVAPLQYWRNEKIVY
modifications: not checked
B1: the Kd is 300 nM.

By Kd is commonly meant the concentration at which binding is half-saturated. Read a high Kd as a looser complex.
